Tested on: N[C@@H](CC(=O)c1ccccc1NC=O)C(=O)O
Assay: purified protein
Conditions: 0.1 M sodium phosphate, pH 7.4, 20 μM ZnCl2, 25°C

PaKynB-His (Pseudomonas aeruginosa PAO1)
Km: 0.98 ± 0.13 mM
Vmax: 0.148 µmol/min
kcat: 114 s⁻¹
kcat/Km: 116000 M⁻¹ s⁻¹
